Drawing on the supplement of paper PMC12042874, this text covers amyloid nucleation score for 98 substances.

± gives the uncertainty stated by the source.

The data set in a line: amyloid nucleation score (Sup35N fusion, yeast selection) (log enrichment); library NNK3; higher = more nucleation; inactive = no reads after selection. Put shortly:
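Libraries of peptides of 20 random codons fused to Sup35N were expressed in psi-negative yeast and induced 24 hours with 100 μM copper sulfate. Selection was 7 days at 30°C on medium lacking adenine and uracil, and plasmid inserts were Illumina-sequenced before and after selection. Nucleation score is the DiMSum log enrichment of output over input reads, centred on the mode score of non-aggregating sequences, and sequences with under 100 input reads were left out.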
Turning to GAGYL, the amyloid nucleation score result was “inactive”.

Consider GAMNVESLSMFMRVYYVPYR, for which the amyloid nucleation score result was “inactive”. Regarding GASREFQTCSVGVYYVAIEK, the amyloid nucleation score result is “inactive”. Consider GATVLLSNFSVCPHMARSSG, for which the amyloid nucleation score result was “inactive”. Consider GAVFSEWTQVRSCDCDGIDK, for which the amyloid nucleation score result is “inactive”.

Regarding GCAGRSWTGYRVHAASV, the amyloid nucleation score result is “inactive”. On to GCFSV, for which the amyloid nucleation score result was “inactive”. On to GCHLFHWFIFAYCYHYEGTN, for which the amyloid nucleation score stood at 1.91 ± 0.09. GCIKGVICLTHC: the amyloid nucleation score entry is “inactive”. Under GCISVVSL stands “inactive”; under GCKEL, “inactive”; under GCLDQFGCGGTPVKVFATNV, -1.39 ± 2.5. GCNREGTYSRPVLTATNGG registered an amyloid nucleation score of -0.152 ± 0.93. For GCRGVTVHSADCCDLSIYLC the value was 2.31 ± 0.082. For the substance GDFLNCAFLTKIFEHQNNFW, the amyloid nucleation score came to 1.85 ± 0.077.

As for GDIRLGVAFRIFLSNCWGYF, the amyloid nucleation score entry is “inactive”. Take GDMFGQPCRTCMFDLLKPVS: the amyloid nucleation score entry was “inactive”.

Turning to GDSFCFQLGVMCINHVRWY, the amyloid nucleation score was found to be 1.78 ± 0.09. GDSNTSRLCAPSMRNVKAQL: the amyloid nucleation score entry is “inactive”. Regarding GDVLLY, the amyloid nucleation score entry is “inactive”. For GDVNCLNTVTLKNNKTRGHI the value was “inactive”; for GECPRQRVSLM, “inactive”. For GEHSGRYYSNVSKNESMGVI, the amyloid nucleation score entry was “inactive”.

For the substance GEIANSQVRKWLIEMYSPVV, the amyloid nucleation score result is “inactive”. As for GEIRSKTTVLP, the amyloid nucleation score result was “inactive”. Consider GERHMVLSVNLRCVTVNVYW, for which the amyloid nucleation score entry was “inactive”. GESSP: the amyloid nucleation score result is “inactive”. Consider GFFTYTTRSGDSSYGVEASA, for which the amyloid nucleation score is -0.289 ± 1.1. As for GFGDRMDNPSVVSK, the amyloid nucleation score entry is “inactive”. GFHELRLH: the amyloid nucleation score entry is “inactive”. Turning to GFIGECFFDHMGITFVLIET, the amyloid nucleation score result is “inactive”.

Turning to GFIVSRERLNVMVLFSVYW, the amyloid nucleation score result is “inactive”. Under GFLLFLAVWRDTIGIVLVVL stands “inactive”; under GFMHTVRCIRIEPPQCRAVV, “inactive”. For GFNYVFDSGEFGDRSFWHIY the value was “inactive”. For GFTRKFSFYKRHQSVWITRR the value was “inactive”; for GFWWVTRPSTPARLSSMSPQ, “inactive”. On to GFYAE, for which the amyloid nucleation score entry was “inactive”. For the substance GGAVMMALWGGLS, the amyloid nucleation score entry is “inactive”. With GGHVSRRLHF, the amyloid nucleation score result is “inactive”. For the substance GGKAISNFEFLLILGPY, the amyloid nucleation score entry is “inactive”. On to GGLCRGYQDMIMLWNMLQKQ, for which the amyloid nucleation score entry was “inactive”. The substance GGLQTERFLWRC had an amyloid nucleation score of 0.13 ± 0.63. Under GGMHRAYMESVSDVYLRKWW stands 0.308 ± 0.21; under GHLFVNTRYFGNFLDSSQVR, “inactive”. With GHTRDFKGSFDFPLNFY, the amyloid nucleation score result was “inactive”. For GICEMVGTSYTFE, the amyloid nucleation score result is “inactive”. GIFVGPSVDSLLKLRARSHY: the amyloid nucleation score result is “inactive”. In the case of GIKFAGRRLTSEDL, the amyloid nucleation score entry is “inactive”. The substance GIKKTREPNCLVCIDIWIFI showed an amyloid nucleation score of 1.33 ± 0.07. For GILSISQNKISVHPLLLLRI, the amyloid nucleation score entry is “inactive”. For GISFFIMFILVPLFRKGVKV, the amyloid nucleation score result is “inactive”. For GISILLSSYPRMCLLRLVGL the value was “inactive”. GIWSASRLKGNSLYCLLKNV: the amyloid nucleation score result is “inactive”.

Substance GIYFDSGLRGWHSLNHRCRR came in with an amyloid nucleation score of 0.132 ± 0.59. Under GIYSI stands “inactive”; under GKDSCKTTLVSRRLLRLKAP, “inactive”; under GKFLVFAKVNVMVGCVLLFM, “inactive”. As for GKFNTCA, the amyloid nucleation score entry is “inactive”. For GKGFCLLVVSSVMRDVGLVQ the value was “inactive”; for GKMLRWMKH, “inactive”; for GKSIYCWFWVKMQEAERLMS, “inactive”. Under GKSSKDLHIFIMIRVWHYLT stands “inactive”.

Turning to GKSTVGMI, the amyloid nucleation score result is “inactive”. As for GKTLLTSKDGCV, the amyloid nucleation score result was “inactive”. Under GKTSGCWSFFYILIS stands -0.388 ± 0.75; under GLCNNHIGKIFTYWNTPLDY, “inactive”; under GLEAPTCPEVFNIGIFSYYH, 1.45 ± 0.068. For GLEVLVISIGAWLSLTLSFQ, the amyloid nucleation score entry was “inactive”.

Regarding GLISPRYATSSWLCQPIINF, the amyloid nucleation score entry is “inactive”. As to GLLFYYMILLGELLQR, the amyloid nucleation score entry was “inactive”. For the substance GLLLVRM, the amyloid nucleation score result was “inactive”. For GLLMSMRSFFSGQVQNGAVL, the amyloid nucleation score result is “inactive”. Consider GLLNSD, for which the amyloid nucleation score entry is “inactive”. In the case of GLVHCNGSPAQITFKDTFNR, the amyloid nucleation score result was “inactive”.

Turning to GLVSVLSDEMYCFWQYSCYS, the amyloid nucleation score turned out to be 1.91 ± 0.091. For GLVWVN the value was “inactive”; for GLWNDCKRWLRRS, “inactive”. The substance GMRRFHNVRINVVSRWWFLE registered an amyloid nucleation score of 0.545 ± 0.28. As to GMTVLLSMVI, the amyloid nucleation score result was “inactive”.

Turning to GNCHDVWVYVLCTVGMSLMR, the amyloid nucleation score entry was “inactive”.

In the case of GNEIGITGVYGLHRSAKVVV, the amyloid nucleation score entry is “inactive”.

Consider GNFCDCEDFHKGSAGLRWSG, for which the amyloid nucleation score entry was “inactive”.

In the case of GNFMNNGRLVASPLLREVCC, the amyloid nucleation score entry was “inactive”. GNGVTPWPAEENSSRSPMPY: the amyloid nucleation score entry was “inactive”.

In turn, GNISGLNLVCEPIAVGSACE had an amyloid nucleation score of -0.962 ± 1.9. In turn, GNLWT showed an amyloid nucleation score of 0.637 ± 0.12. In the case of GNSDR, the amyloid nucleation score entry is “inactive”. As for GNSLWKSPCYL, the amyloid nucleation score result is “inactive”. For GNSVRIAWQVWCTLCMTRQW the value was 0.356 ± 0.22; for GNVILCFMLNYSMISGNDM, 0.956 ± 0.17. Under GNVQIDASIKKSNGRWYGSV stands -0.063 ± 0.31; under GNWCSG, “inactive”; under GNWQCFTEGRTPCYFCCITT, “inactive”.

Turning to GNWSYVENYV, the amyloid nucleation score entry is “inactive”. Consider GPCFEVAVYYDATEMGKQSI, for which the amyloid nucleation score was -0.507 ± 1.1. Under GPGSYWEMRTN stands “inactive”. With GPLHMANYGYVLNIYLSCRN, the amyloid nucleation score amounted to 2.15 ± 0.06.
